# Experimental data: patent EP4792821A2 (Beijing Youcare Kechuang Pharmaceutical Technology Co., Ltd., dated 2026)
# The star is where a group is joined. Succinyl(4-O-cholesteryl) = CC(C)CCC[C@@H](C)[C@H]1CC[C@H]2[C@@H]3CC=C4C[C@@H](OC(=O)CCC(=O)*)CC[C@]4(C)[C@H]3CC[C@]12C
# Biological target: F protein of RSV A long virus strain (Respiratory Syncytial Virus (RSV) A …, UniProt P12568 26-574)
# Experiment: cell-based or functional assay
# Sequence of F protein of RSV A long virus strain (P12568 26-574): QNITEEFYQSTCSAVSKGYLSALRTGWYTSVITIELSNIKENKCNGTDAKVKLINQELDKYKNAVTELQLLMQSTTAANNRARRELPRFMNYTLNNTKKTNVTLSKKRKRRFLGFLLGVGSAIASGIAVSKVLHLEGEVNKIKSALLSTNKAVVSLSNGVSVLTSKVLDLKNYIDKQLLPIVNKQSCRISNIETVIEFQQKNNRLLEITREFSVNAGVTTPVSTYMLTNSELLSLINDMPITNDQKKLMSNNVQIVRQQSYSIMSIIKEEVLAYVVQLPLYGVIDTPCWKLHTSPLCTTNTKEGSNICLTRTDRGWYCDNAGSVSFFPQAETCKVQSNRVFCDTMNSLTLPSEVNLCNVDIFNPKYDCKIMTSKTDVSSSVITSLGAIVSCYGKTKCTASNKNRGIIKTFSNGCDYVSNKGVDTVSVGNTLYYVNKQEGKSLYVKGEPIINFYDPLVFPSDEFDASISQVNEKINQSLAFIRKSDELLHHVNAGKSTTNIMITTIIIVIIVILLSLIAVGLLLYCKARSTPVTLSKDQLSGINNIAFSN
row,Binder,"IC50/nM, plaque reduction, RSV A long on HEp-2 cells (Table 2, Cell fusion inhibition activity)"
1,Ac-DEFDKKKIEEVNKKIEESLKKIEESDKKLEEV-NH2 [Compound 3],4430 nM
2,Ac-WDEFDKKIEEVNKKIEESLKKIEESDKKLEEVNKKLGSGSGK(Succinyl(4-O-cholesteryl))-NH2 [Compound 11],99.1 nM
3,Ac-FDASIEEVNRRIEESLRRIEESDRRLEVNKKA-NH2 [Compound 1],1360 nM
4,Ac-FDFDEFDASISQVNEKINESLAFIRLAFIRKSDELLEAAAKK-NH2 [Compound 24],2650 nM
5,Ac-FDASIEEVNRRIEESLRRIEESDRRLEAAAKK(Succinyl(4-O-cholesteryl))-NH2 (SMILES CC[C@H](C)[C@H](NC(=O)[C@H](CO)NC(=O)[C@H](C)NC(=O)[C@H](CC(=O)O)NC(=O)[C@H](Cc1ccccc1)NC(C)=O)C(=O)N[C@@H](CCC(=O)O)C(=O)N[C@@H](CCC(=O)O)C(=O)N[C@H](C(=O)N[C@@H](CC(N)=O)C(=O)N[C@@H](CCCNC(=N)N)C(=O)N[C@@H](CCCNC(=N)N)C(=O)N[C@H](C(=O)N[C@@H](CCC(=O)O)C(=O)N[C@@H](CCC(=O)O)C(=O)N[C@@H](CO)C(=O)N[C@@H](CC(C)C)C(=O)N[C@@H](CCCNC(=N)N)C(=O)N[C@@H](CCCNC(=N)N)C(=O)N[C@H](C(=O)N[C@@H](CCC(=O)O)C(=O)N[C@@H](CCC(=O)O)C(=O)N[C@@H](CO)C(=O)N[C@@H](CC(=O)O)C(=O)N[C@@H](CCCNC(=N)N)C(=O)N[C@@H](CCCNC(=N)N)C(=O)N[C@@H](CC(C)C)C(=O)N[C@@H](CCC(=O)O)C(=O)N[C@@H](C)C(=O)N[C@@H](C)C(=O)N[C@@H](C)C(=O)N[C@@H](CCCCN)C(=O)N[C@@H](CCCCNC(=O)CCC(=O)O[C@H]1CC[C@@]2(C)C(=CC[C@H]3[C@@H]4CC[C@H]([C@H](C)CCCC(C)C)[C@@]4(C)CC[C@@H]32)C1)C(N)=O)[C@@H](C)CC)[C@@H](C)CC)C(C)C) [Compound 19],16.2 nM
6,Ac-SLEQVNKKINQSLKVNKKSDKLLENEAAAKK(Succinyl(4-O-cholesteryl))-NH2 (SMILES CC[C@H](C)[C@H](NC(=O)[C@H](CCCCN)NC(=O)[C@H](CCCCN)NC(=O)[C@H](CC(N)=O)NC(=O)[C@@H](NC(=O)[C@H](CCC(N)=O)NC(=O)[C@H](CCC(=O)O)NC(=O)[C@H](CC(C)C)NC(=O)[C@H](CO)NC(C)=O)C(C)C)C(=O)N[C@@H](CC(N)=O)C(=O)N[C@@H](CCC(N)=O)C(=O)N[C@@H](CO)C(=O)N[C@@H](CC(C)C)C(=O)N[C@@H](CCCCN)C(=O)N[C@H](C(=O)N[C@@H](CC(N)=O)C(=O)N[C@@H](CCCCN)C(=O)N[C@@H](CCCCN)C(=O)N[C@@H](CO)C(=O)N[C@@H](CC(=O)O)C(=O)N[C@@H](CCCCN)C(=O)N[C@@H](CC(C)C)C(=O)N[C@@H](CC(C)C)C(=O)N[C@@H](CCC(=O)O)C(=O)N[C@@H](CC(N)=O)C(=O)N[C@@H](CCC(=O)O)C(=O)N[C@@H](C)C(=O)N[C@@H](C)C(=O)N[C@@H](C)C(=O)N[C@@H](CCCCN)C(=O)N[C@@H](CCCCNC(=O)CCC(=O)O[C@H]1CC[C@@]2(C)C(=CC[C@H]3[C@@H]4CC[C@H]([C@H](C)CCCC(C)C)[C@@]4(C)CC[C@@H]32)C1)C(N)=O)C(C)C) [Compound 33],5040 nM
7,Ac-SDEQVNEKINQSLAFIRRIRKLLHNEAAAKK(Succinyl(4-O-cholesteryl))-NH2 (SMILES CC[C@H](C)[C@H](NC(=O)[C@H](Cc1ccccc1)NC(=O)[C@H](C)NC(=O)[C@H](CC(C)C)NC(=O)[C@H](CO)NC(=O)[C@H](CCC(N)=O)NC(=O)[C@H](CC(N)=O)NC(=O)[C@@H](NC(=O)[C@H](CCCCN)NC(=O)[C@H](CCC(=O)O)NC(=O)[C@H](CC(N)=O)NC(=O)[C@@H](NC(=O)[C@H](CCC(N)=O)NC(=O)[C@H](CCC(=O)O)NC(=O)[C@H](CC(=O)O)NC(=O)[C@H](CO)NC(C)=O)C(C)C)[C@@H](C)CC)C(=O)N[C@@H](CCCNC(=N)N)C(=O)N[C@@H](CCCNC(=N)N)C(=O)N[C@H](C(=O)N[C@@H](CCCNC(=N)N)C(=O)N[C@@H](CCCCN)C(=O)N[C@@H](CC(C)C)C(=O)N[C@@H](CC(C)C)C(=O)N[C@@H](Cc1c[nH]cn1)C(=O)N[C@@H](CC(N)=O)C(=O)N[C@@H](CCC(=O)O)C(=O)N[C@@H](C)C(=O)N[C@@H](C)C(=O)N[C@@H](C)C(=O)N[C@@H](CCCCN)C(=O)N[C@@H](CCCCNC(=O)CCC(=O)O[C@H]1CC[C@@]2(C)C(=CC[C@H]3[C@@H]4CC[C@H]([C@H](C)CCCC(C)C)[C@@]4(C)CC[C@@H]32)C1)C(N)=O)[C@@H](C)CC) [Compound 31],2220 nM
8,Ac-KIEEVNKKIEESLKKIEESDKKLEEVNKKLEAAAKK(Succinyl(4-O-cholesteryl))-NH2 (SMILES CC[C@H](C)[C@H](NC(=O)[C@H](CCCCN)NC(C)=O)C(=O)N[C@@H](CCC(=O)O)C(=O)N[C@@H](CCC(=O)O)C(=O)N[C@H](C(=O)N[C@@H](CC(N)=O)C(=O)N[C@@H](CCCCN)C(=O)N[C@@H](CCCCN)C(=O)N[C@H](C(=O)N[C@@H](CCC(=O)O)C(=O)N[C@@H](CCC(=O)O)C(=O)N[C@@H](CO)C(=O)N[C@@H](CC(C)C)C(=O)N[C@@H](CCCCN)C(=O)N[C@@H](CCCCN)C(=O)N[C@H](C(=O)N[C@@H](CCC(=O)O)C(=O)N[C@@H](CCC(=O)O)C(=O)N[C@@H](CO)C(=O)N[C@@H](CC(=O)O)C(=O)N[C@@H](CCCCN)C(=O)N[C@@H](CCCCN)C(=O)N[C@@H](CC(C)C)C(=O)N[C@@H](CCC(=O)O)C(=O)N[C@@H](CCC(=O)O)C(=O)N[C@H](C(=O)N[C@@H](CC(N)=O)C(=O)N[C@@H](CCCCN)C(=O)N[C@@H](CCCCN)C(=O)N[C@@H](CC(C)C)C(=O)N[C@@H](CCC(=O)O)C(=O)N[C@@H](C)C(=O)N[C@@H](C)C(=O)N[C@@H](C)C(=O)N[C@@H](CCCCN)C(=O)N[C@@H](CCCCNC(=O)CCC(=O)O[C@H]1CC[C@@]2(C)C(=CC[C@H]3[C@@H]4CC[C@H]([C@H](C)CCCC(C)C)[C@@]4(C)CC[C@@H]32)C1)C(N)=O)C(C)C)[C@@H](C)CC)[C@@H](C)CC)C(C)C) [Compound 10],18.1 nM
9,Ac-ILELVNKKIEQSLKFIEKSDKLLENEAAAKK(Succinyl(4-O-cholesteryl))-NH2 (SMILES CC[C@H](C)[C@H](NC(C)=O)C(=O)N[C@@H](CC(C)C)C(=O)N[C@@H](CCC(=O)O)C(=O)N[C@@H](CC(C)C)C(=O)N[C@H](C(=O)N[C@@H](CC(N)=O)C(=O)N[C@@H](CCCCN)C(=O)N[C@@H](CCCCN)C(=O)N[C@H](C(=O)N[C@@H](CCC(=O)O)C(=O)N[C@@H](CCC(N)=O)C(=O)N[C@@H](CO)C(=O)N[C@@H](CC(C)C)C(=O)N[C@@H](CCCCN)C(=O)N[C@@H](Cc1ccccc1)C(=O)N[C@H](C(=O)N[C@@H](CCC(=O)O)C(=O)N[C@@H](CCCCN)C(=O)N[C@@H](CO)C(=O)N[C@@H](CC(=O)O)C(=O)N[C@@H](CCCCN)C(=O)N[C@@H](CC(C)C)C(=O)N[C@@H](CC(C)C)C(=O)N[C@@H](CCC(=O)O)C(=O)N[C@@H](CC(N)=O)C(=O)N[C@@H](CCC(=O)O)C(=O)N[C@@H](C)C(=O)N[C@@H](C)C(=O)N[C@@H](C)C(=O)N[C@@H](CCCCN)C(=O)N[C@@H](CCCCNC(=O)CCC(=O)O[C@H]1CC[C@@]2(C)C(=CC[C@H]3[C@@H]4CC[C@H]([C@H](C)CCCC(C)C)[C@@]4(C)CC[C@@H]32)C1)C(N)=O)[C@@H](C)CC)[C@@H](C)CC)C(C)C) [Compound 32],296 nM
10,Ac-FDASIEEVNRRIEESLRRIEESDRRLEVNKKAGSGSGK(Succinyl(4-O-cholesteryl))-NH2 (SMILES CC[C@H](C)[C@H](NC(=O)[C@H](CO)NC(=O)[C@H](C)NC(=O)[C@H](CC(=O)O)NC(=O)[C@H](Cc1ccccc1)NC(C)=O)C(=O)N[C@@H](CCC(=O)O)C(=O)N[C@@H](CCC(=O)O)C(=O)N[C@H](C(=O)N[C@@H](CC(N)=O)C(=O)N[C@@H](CCCNC(=N)N)C(=O)N[C@@H](CCCNC(=N)N)C(=O)N[C@H](C(=O)N[C@@H](CCC(=O)O)C(=O)N[C@@H](CCC(=O)O)C(=O)N[C@@H](CO)C(=O)N[C@@H](CC(C)C)C(=O)N[C@@H](CCCNC(=N)N)C(=O)N[C@@H](CCCNC(=N)N)C(=O)N[C@H](C(=O)N[C@@H](CCC(=O)O)C(=O)N[C@@H](CCC(=O)O)C(=O)N[C@@H](CO)C(=O)N[C@@H](CC(=O)O)C(=O)N[C@@H](CCCNC(=N)N)C(=O)N[C@@H](CCCNC(=N)N)C(=O)N[C@@H](CC(C)C)C(=O)N[C@@H](CCC(=O)O)C(=O)N[C@H](C(=O)N[C@@H](CC(N)=O)C(=O)N[C@@H](CCCCN)C(=O)N[C@@H](CCCCN)C(=O)N[C@@H](C)C(=O)NCC(=O)N[C@@H](CO)C(=O)NCC(=O)N[C@@H](CO)C(=O)NCC(=O)N[C@@H](CCCCNC(=O)CCC(=O)O[C@H]1CC[C@@]2(C)C(=CC[C@H]3[C@@H]4CC[C@H]([C@H](C)CCCC(C)C)[C@@]4(C)CC[C@@H]32)C1)C(N)=O)C(C)C)[C@@H](C)CC)[C@@H](C)CC)C(C)C) [Compound 12],28.4 nM
11,Ac-YDELVFDASQVNEKINQSLEKIRKSDELLHNV-NH2 [Compound 23],2330 nM
12,Ac-DDEFNQKINEVNEKIEEILKKIEESDRKLEESDKKA-NH2 [Compound 2],> 8000 nM
